Experimental data as given in IntAct's records for PubMed 31515488.

B1: Sulfotransferase 1A1 (Homo sapiens), P50225 (parent)
chain: MELIQDTSRPPLEYVKGVPLIKYFAEALGPLQSFQARPDDLLISTYPKSGTTWVSQILDMIYQGGDLEKCHRAPIFMRVPFLEFKAPGIPSGMETLKDTPAPRLLKTHLPLALLPQTLLDQKVKVVYVARNAKDVAVSYYHFYHMAKVHPEPGTWDSFLEKFMVGEVSYGSWYQHVQEWWELSRTHPVLYLFYEDMKENPKREIQKILEFVGRSLPEETVDFVVQHTSFKEMKKNPMTNYTTVPQEFMDHSISPFMRKGMAGDWKTTFTVAQNERFDADYAEKMAGCSLSFRSEL
partner: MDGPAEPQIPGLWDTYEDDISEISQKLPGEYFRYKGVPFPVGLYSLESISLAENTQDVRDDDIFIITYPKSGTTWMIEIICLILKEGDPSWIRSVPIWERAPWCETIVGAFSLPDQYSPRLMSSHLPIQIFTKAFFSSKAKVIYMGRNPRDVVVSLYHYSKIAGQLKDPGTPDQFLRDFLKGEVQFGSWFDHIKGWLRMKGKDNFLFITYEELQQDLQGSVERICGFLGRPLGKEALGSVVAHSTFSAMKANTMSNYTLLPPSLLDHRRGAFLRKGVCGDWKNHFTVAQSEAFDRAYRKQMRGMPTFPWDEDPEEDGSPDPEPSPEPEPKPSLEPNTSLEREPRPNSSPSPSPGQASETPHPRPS
B2: RUN and FYVE domain-containing protein 1 (Homo sapiens), Q96T51-2 (parent)
chain: MMEERANLMHMMKLSIKVLLQSALSLGRSLDADHAPLQQFFVVMEHCLKHGLKVKKSFIGQNKSFFGPLELVEKLCPEASDIATSVRNLPELKTAVGRGRAWLYLALMQKKLADYLKVLIDNKHLLSEFYEPEALMMEEEGMVIVGLLVGLNVLDANLCLKGEDLDSQVGVIDFSLYLKDVQDLDGGKEHERITDVLDQKNYVEELNRHLSCTVGDLQTKIDGLEKTNSKLQEELSAATDRICSLQEEQQQLREQNELIRERSEKSVEITKQDTKVELETYKQTRQGLDEMYSDVWKQLKEEKKVRLELEKELELQIGMKTEMEIAMKLLEKDTHEKQDTLVALRQQLEEVKAINLQMFHKAQNAESSLQQKNEAITSFEGKTNQVMSSMKQMEERLQHSERARQGAEERSHKLQQELGGRIGALQLQLSQLHEQCSSLEKELKSEKEQRQALQRELQHEKDTSSLLRMELQQVEGLKKELRELQDEKAELQKICEEQEQALQEMGLHLSQSKLKMEDIKEVNQALKGHAWLKDDEATHCRQCEKEFSISRRKHHCRNCGHIFCNTCSSNELALPSYPKPVRVCDSCHTLLLQRCSSTAS
partner: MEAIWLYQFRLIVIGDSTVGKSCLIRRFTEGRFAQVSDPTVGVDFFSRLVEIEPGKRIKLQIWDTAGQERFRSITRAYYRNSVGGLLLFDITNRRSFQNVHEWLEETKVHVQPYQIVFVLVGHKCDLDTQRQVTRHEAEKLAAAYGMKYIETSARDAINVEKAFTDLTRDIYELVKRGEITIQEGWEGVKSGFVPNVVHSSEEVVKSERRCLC
B3: MYG1 exonuclease (Homo sapiens), Q9HB07 (parent)
chain: MGHRFLRGLLTLLLPPPPLYTRHRMLGPESVPPPKRSRSKLMAPPRIGTHNGTFHCDEALACALLRLLPEYRDAEIVRTRDPEKLASCDIVVDVGGEYDPRRHRYDHHQRSFTETMSSLSPGKPWQTKLSSAGLIYLHFGHKLLAQLLGTSEEDSMVGTLYDKMYENFVEEVDAVDNGISQWAEGEPRYALTTTLSARVARLNPTWNHPDQDTEAGFKRAMDLVQEEFLQRLDFYQHSWLPARALVEEALAQRFQVDPSGEIVELAKGACPWKEHLYHLESGLSPPVAIFFVIYTDQAGQWRIQCVPKEPHSFQSRLPLPEPWRGLRDEALDQVSGIPGCIFVHASGFIGGHRTREGALSMARATLAQRSYLPQIS
partner: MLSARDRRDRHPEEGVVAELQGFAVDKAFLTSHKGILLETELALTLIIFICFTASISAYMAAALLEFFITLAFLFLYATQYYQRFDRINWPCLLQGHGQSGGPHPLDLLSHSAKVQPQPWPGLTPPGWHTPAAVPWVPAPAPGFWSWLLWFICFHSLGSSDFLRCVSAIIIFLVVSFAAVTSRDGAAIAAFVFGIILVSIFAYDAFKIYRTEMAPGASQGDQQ
B4: F-box only protein 11 (Homo sapiens), Q86XK2 (parent)
chain: MNSVRAANRRPRRVSRPRPVQQQQQQPPQQPPPQPPQQQPPQQQPPPPPQQQQQQQPPPPPPPPPPLPQERNNVGERDDDVPADMVAEESGPGAQNSPYQLRRKTLLPKRTACPTKNSMEGASTSTTENFGHRAKRARVSGKSQDLSAAPAEQYLQEKLPDEVVLKIFSYLLEQDLCRAACVCKRFSELANDPILWKRLYMEVFEYTRPMMHPEPGKFYQINPEEYEHPNPWKESFQQLYKGAHVKPGFAEHFYSNPARYKGRENMLYYDTIEDALGGVQEAHFDGLIFVHSGIYTDEWIYIESPITMIGAAPGKVADKVIIENTRDSTFVFMEGSEDAYVGYMTIRFNPDDKSAQHHNAHHCLEITVNCSPIIDHCIIRSTCTVGSAVCVSGQGACPTIKHCNISDCENVGLYITDHAQGIYEDNEISNNALAGIWVKNHGNPIIRRNHIHHGRDVGVFTFDHGMGYFESCNIHRNRIAGFEVKAYANPTVVRCEIHHGQTGGIYVHEKGRGQFIENKIYANNFAGVWITSNSDPTIRGNSIFNGNQGGVYIFGDGRGLIEGNDIYGNALAGIQIRTNSCPIVRHNKIHDGQHGGIYVHEKGQGVIEENEVYSNTLAGVWVTTGSTPVLRRNRIHSGKQVGVYFYDNGHGVLEDNDIYNHMYSGVQIRTGSNPKIRRNKIWGGQNGGILVYNSGLGCIEDNEIFDNAMAGVWIKTDSNPTLRRNKIHDGRDGGICIFNGGRGLLEENDIFRNAQAGVLISTNSHPILRKNRIFDGFAAGIEITNHATATLEGNQIFNNRFGGLFLASGVNVTMKDNKIMNNQDAIEKAVSRGQCLYKISSYTSYPMHDFYRCHTCNTTDRNAICVNCIKKCHQGHDVEFIRHDRFFCDCGAGTLSNPCTLAGEPTHDTDTLYDSAPPIESNTLQHN
B5: MIF4G domain-containing protein (Homo sapiens), A9UHW6 (parent)
chain: MGEPSREEYKIQSFDAETQQLLKTALKDPGAVDLEKVANVIVDHSLQDCVFSKEAGRMCYAIIQAESKQAGQSVFRRGLLNRLQQEYQAREQLRARSLQGWVCYVTFICNIFDYLRVNNMPMMALVNPVYDCLFRLAQPDSLSKEEEVDCLVLQLHRVGEQLEKMNGQRMDELFVLIRDGFLLPTGLSSLAQLLLLEIIEFRAAGWKTTPAAHKYYYSEVSD
partner: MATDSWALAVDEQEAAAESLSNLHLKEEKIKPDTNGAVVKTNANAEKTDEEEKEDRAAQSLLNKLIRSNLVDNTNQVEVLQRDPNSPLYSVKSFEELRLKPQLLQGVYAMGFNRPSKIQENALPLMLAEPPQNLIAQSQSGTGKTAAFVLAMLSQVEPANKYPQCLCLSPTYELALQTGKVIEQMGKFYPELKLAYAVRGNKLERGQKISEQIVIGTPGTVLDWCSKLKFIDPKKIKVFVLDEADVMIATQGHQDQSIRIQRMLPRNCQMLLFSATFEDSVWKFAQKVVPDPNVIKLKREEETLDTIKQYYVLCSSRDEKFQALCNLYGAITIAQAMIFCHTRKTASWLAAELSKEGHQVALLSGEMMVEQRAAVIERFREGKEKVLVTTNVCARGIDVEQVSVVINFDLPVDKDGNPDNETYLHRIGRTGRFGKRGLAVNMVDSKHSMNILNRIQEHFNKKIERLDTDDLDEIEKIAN
B6: Protein BANP (Homo sapiens), Q8N9N5 (parent)
chain: MMSEHDLADVVQIAVEDLSPDHPVVLENHVVTDEDEPALKRQRLEINCQDPSIKTICLRLDSIEAKLQALEATCKSLEEKLDLVTNKQHSPIQVPMVAGSPLGATQTCNKVRCVVPQTTVILNNDRQNAIVAKMEDPLSNRAPDSLENVISNAVPGRRQNTIVVKVPGQEDSHHEDGESGSEASDSVSSCGQAGSQSIGSNVTLITLNSEEDYPNGTWLGDENNPEMRVRCAIIPSDMLHISTNCRTAEKMALTLLDYLFHREVQAVSNLSGQGKHGKKQLDPLTIYGIRCHLFYKFGITESDWYRIKQSIDSKCRTAWRRKQRGQSLAVKSFSRRTPNSSSYCPSEPMMSTPPPASELPQPQPQPQALHYALANAQQVQIHQIGEDGQVQVGHLHIAQVPQGEQVQITQDSEGNLQIHHVGQDGQLLEATRIPCLLAPSVFKASSGQVLQGAQLIAVASSDPAAAGVDGSPLQGSDIQVQYVQLAPVSDHTAGAQTAEALQPTLQPEMQLEHGAIQIQ
partner: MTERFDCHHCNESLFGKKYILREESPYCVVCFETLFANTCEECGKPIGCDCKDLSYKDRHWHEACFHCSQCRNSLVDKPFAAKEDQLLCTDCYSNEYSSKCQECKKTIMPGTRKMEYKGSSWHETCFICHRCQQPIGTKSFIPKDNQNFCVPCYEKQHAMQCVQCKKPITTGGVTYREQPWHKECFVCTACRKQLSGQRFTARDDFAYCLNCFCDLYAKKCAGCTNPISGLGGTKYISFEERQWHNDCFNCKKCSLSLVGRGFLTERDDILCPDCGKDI
B7: Heat shock factor protein 2 (Homo sapiens), Q03933 (parent)
chain: MKQSSNVPAFLSKLWTLVEETHTNEFITWSQNGQSFLVLDEQRFAKEILPKYFKHNNMASFVRQLNMYGFRKVVHIDSGIVKQERDGPVEFQHPYFKQGQDDLLENIKRKVSSSKPEENKIRQEDLTKIISSAQKVQIKQETIESRLSELKSENESLWKEVSELRAKHAQQQQVIRKIVQFIVTLVQNNQLVSLKRKRPLLLNTNGAQKKNLFQHIVKEPTDNHHHKVPHSRTEGLKPRERISDDIIIYDVTDDNADEENIPVIPETNEDVISDPSNCSQYPDIVIVEDDNEDEYAPVIQSGEQNEPARESLSSGSDGSSPLMSSAVQLNGSSSLTSEDPVTMMDSILNDNINLLGKVELLDYLDSIDCSLEDFQAMLSGRQFSIDPDLLVDLFTSSVQMNPTDYINNTKSENKGLETTKNNVVQPVSEEGRKSKSKPDKQLIQYTAFPLLAFLDGNPASSVEQASTTASSEVLSSVDKPIEVDELLDSSLDPEPTQSKLVRLEPLTEAEASEATLFYLCELAPAPLDSDMPLLDS

Variants of: B1
Conditions: with st2b1_human SULT2B1, O00204
For V223M, the “effect of a mutation on the interaction” value was “with no effect”.

Variants of: B2
Conditions: with rb39b_human RAB39B
With C159F the “effect of a mutation on the interaction” value was “with no effect”.

Variants of: B3
Conditions: with cklf5_human CMTM5, Q96DZ9
For R188Q, the “effect of a mutation on the interaction” value was “with no effect”.

Variants of: B4
Conditions: with skp1_human SKP1, P63208
skp1_human SKP1, P63208, sequence (P63208 whole entry): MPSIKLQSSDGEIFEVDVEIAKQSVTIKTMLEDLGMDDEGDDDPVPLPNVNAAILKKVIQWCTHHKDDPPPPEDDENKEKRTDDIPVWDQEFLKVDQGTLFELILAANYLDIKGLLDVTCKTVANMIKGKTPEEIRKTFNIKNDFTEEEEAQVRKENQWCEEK
With I306V the “effect of a mutation on the interaction” value was “with no effect”.
For Y226C, the “effect of a mutation on the interaction” value was “with no effect”.

Variants of: B5
Conditions: with dd19b_human DDX19B
E160K was tested, and the “effect of a mutation on the interaction” value was “with no effect”.

Variants of: B6
Conditions: with fhl2_human FHL2, Q14192
With P348S the “effect of a mutation on the interaction” value was “with no effect”.

Variants of: B7
Conditions: with mtus2_human MTUS2, Q5JR59
mtus2_human MTUS2, Q5JR59, sequence (Q5JR59 whole entry): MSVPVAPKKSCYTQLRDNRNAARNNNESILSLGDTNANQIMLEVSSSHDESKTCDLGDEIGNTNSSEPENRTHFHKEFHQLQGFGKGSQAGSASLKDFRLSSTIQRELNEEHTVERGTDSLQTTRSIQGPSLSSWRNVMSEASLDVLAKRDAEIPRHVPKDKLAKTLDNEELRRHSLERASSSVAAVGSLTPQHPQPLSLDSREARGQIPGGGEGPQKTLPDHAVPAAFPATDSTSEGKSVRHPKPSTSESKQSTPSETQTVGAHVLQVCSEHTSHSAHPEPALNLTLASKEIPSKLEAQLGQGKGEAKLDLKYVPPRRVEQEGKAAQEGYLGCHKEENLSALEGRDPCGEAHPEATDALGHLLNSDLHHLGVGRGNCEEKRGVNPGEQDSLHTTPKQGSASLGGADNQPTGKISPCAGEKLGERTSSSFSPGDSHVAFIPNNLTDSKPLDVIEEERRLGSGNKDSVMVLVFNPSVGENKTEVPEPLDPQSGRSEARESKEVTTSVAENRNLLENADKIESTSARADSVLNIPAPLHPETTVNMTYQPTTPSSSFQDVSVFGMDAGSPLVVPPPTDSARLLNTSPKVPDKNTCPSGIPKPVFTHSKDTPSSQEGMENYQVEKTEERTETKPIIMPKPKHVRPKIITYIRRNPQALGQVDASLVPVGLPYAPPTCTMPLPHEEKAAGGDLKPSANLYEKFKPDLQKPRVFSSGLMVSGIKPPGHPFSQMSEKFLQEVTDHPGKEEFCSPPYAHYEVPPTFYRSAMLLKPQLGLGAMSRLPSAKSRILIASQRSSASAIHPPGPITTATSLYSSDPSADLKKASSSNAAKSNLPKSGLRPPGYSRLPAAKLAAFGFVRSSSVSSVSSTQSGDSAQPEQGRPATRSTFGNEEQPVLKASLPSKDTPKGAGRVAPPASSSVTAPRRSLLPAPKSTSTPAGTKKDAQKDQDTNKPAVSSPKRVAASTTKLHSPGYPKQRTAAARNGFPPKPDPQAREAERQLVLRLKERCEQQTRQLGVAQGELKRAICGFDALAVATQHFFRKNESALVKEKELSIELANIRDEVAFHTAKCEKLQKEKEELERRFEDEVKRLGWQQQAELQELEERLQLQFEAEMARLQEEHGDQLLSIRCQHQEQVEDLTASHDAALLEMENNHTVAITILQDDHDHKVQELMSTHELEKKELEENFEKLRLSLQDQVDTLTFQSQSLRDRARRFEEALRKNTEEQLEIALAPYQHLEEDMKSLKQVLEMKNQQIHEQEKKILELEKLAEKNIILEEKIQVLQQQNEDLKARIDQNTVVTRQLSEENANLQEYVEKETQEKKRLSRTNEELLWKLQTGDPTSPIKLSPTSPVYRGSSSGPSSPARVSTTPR
V287I was tested, and the “effect of a mutation on the interaction” value was “with no effect”.

Variants of: B7
Conditions: with nup62_human NUP62, P37198
nup62_human NUP62, P37198, sequence (P37198 whole entry): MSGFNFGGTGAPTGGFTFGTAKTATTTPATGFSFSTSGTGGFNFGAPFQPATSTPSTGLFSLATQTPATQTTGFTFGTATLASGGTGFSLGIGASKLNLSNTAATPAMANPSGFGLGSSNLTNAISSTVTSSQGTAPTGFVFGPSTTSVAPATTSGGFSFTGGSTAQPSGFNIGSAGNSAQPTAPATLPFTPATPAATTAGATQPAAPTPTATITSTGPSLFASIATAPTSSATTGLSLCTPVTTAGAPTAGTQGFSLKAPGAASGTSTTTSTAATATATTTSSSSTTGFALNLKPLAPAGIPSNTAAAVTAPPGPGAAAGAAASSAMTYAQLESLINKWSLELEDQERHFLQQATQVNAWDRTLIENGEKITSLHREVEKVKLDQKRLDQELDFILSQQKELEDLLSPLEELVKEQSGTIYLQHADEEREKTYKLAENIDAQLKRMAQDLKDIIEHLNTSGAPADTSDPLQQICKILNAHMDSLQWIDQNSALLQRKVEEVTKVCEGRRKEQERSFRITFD
In the case of V287I, the “effect of a mutation on the interaction” value is reported as “with no effect”.

Variants of: B7
Conditions: with wdr5_human WDR5, P61964
V287I was tested, and the “effect of a mutation on the interaction” value was “with no effect”.

Variants of: B7
Conditions: with tpm3_human TPM3, P06753
tpm3_human TPM3, P06753, sequence (P06753 whole entry): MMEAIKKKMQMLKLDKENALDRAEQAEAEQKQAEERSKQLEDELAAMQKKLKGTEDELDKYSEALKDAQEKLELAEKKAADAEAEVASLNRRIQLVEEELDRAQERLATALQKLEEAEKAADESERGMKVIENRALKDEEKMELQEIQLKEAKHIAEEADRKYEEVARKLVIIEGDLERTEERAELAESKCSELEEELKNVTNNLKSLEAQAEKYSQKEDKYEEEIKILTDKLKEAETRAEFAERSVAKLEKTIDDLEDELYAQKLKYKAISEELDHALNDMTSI
In the case of V287I, the “effect of a mutation on the interaction” value is reported as “with no effect”.
